Measured values reported in patent publication US5969094A, “Anti-paramyxovirus screening method and vaccine” (Emory University, priority 1996, dated 1999).
Residue numbers refer to the chain shown, from its start.

T1: PI2F + PI2HN (Human parainfluenza 2 virus, UniProt P25467)
T1 construct: expressed in transfected cells; host or cells: HeLa-T4 cells infected with vTF7.3
T1 sequence (P25467 107-551 limits assumed): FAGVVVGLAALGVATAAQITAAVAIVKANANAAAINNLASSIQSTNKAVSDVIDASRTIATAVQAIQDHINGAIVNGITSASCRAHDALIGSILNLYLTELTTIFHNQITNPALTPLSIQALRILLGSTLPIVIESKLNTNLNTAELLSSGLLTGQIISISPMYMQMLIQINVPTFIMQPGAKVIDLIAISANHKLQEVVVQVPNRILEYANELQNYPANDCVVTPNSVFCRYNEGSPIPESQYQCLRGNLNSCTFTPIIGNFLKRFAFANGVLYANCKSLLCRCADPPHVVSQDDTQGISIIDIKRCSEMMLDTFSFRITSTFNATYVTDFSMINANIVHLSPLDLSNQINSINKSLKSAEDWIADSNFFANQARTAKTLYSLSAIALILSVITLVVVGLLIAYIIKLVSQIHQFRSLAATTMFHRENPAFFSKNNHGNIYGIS
T1 sequence (P25467 24-106 partner limits assumed): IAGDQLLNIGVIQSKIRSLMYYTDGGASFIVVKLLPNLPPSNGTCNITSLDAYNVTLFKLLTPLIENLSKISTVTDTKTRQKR

T2: SN-F, fusion glycoprotein of Sendai virus (Sendai virus (SN), UniProt P04855)
T2 sequence: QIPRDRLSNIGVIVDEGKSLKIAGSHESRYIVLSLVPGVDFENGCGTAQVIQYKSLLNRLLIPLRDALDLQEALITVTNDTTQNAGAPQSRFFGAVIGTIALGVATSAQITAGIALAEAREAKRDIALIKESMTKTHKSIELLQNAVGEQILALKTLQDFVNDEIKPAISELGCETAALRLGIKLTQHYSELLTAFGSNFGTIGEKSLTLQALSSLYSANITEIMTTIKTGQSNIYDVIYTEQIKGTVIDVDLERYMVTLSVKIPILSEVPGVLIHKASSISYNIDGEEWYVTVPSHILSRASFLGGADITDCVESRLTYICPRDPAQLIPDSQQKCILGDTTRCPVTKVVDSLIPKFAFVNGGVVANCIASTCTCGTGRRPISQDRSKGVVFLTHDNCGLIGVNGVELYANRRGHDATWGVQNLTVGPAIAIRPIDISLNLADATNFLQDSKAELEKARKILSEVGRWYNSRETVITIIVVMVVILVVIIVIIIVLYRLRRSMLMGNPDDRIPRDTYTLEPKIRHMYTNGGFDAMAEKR

T3: SN-F (Sendai virus, UniProt P04855)
T3 sequence (P04855 117-565 limits assumed): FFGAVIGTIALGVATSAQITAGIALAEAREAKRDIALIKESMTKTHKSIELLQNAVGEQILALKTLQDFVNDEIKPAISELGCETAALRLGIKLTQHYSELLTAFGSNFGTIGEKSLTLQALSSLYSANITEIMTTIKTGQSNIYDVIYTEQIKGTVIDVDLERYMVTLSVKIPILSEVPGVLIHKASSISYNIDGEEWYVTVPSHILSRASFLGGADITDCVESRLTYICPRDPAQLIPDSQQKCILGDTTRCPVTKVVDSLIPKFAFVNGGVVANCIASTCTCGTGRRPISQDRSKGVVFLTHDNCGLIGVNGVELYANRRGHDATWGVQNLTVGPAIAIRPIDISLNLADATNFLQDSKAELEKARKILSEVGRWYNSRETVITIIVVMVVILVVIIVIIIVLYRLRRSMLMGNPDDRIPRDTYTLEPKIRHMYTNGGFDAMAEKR
T3 sequence (P04855 26-116 partner limits assumed): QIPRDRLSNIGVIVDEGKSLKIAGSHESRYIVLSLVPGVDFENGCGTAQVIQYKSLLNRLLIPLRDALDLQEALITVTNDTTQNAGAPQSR

B1: peptide 2F1B34 (peptide)
peptide: Ac-DLSNQINSINKSLKSAEDWIADSNFFANQARTAK-NH2
B2: SN(54-140) chimeric HN protein (other)
chain: MEYWKHTNHGKDAGNELETSMATHGNKITNKITYILWTIILVLLSIVFIIVLIICIIISARQGYSMKEYSMTVEALNMSSREVKESLTSLIRQEVIARAVNIQSSVQTGIPVLLNKNSRDVIQMIDKSCSRQELTQHCESRITHDVGIKPLNPDDFWRCTSGLPSLMKTPKIRLMPGPGLLAMPTTVDGCVRTPSLVINDLIYAYTSNLITRGCQDIGKSYQVLQIGIITVNSDLVPDLNPRISHTFNINDNRKSCSLALLNTDVYQLCSTPKVDERSDYASSGIEDIVLDIVNHDGSISTTRFKNNNISFDQPYAALYPSVGPGIYYKGKIIFLGYGGLEHPINENAICNTTGCPGKTQRDCNQASHSPWFSDRRMVNSIIVVDKGLNSIPKLKVWTISMRQNYWGSEGRLLLLGNKIYIYTRSTSWHSKLQLGIIDITDYSDIRIKWTWHNVLSRPGNNECPWGHSCPDGCITGVYTDAYPLNPTGSIVSSVILDSQKSRVNPVITYSTSTERVNELAIRNKTLSAGYTTTSCITHYNKGYCFHIVEINHKSLDTFQPMLFKTEIPKSCS
B3: SN(59-140) chimeric HN protein (other)
chain: B2 chain with I54N, C55S, I57K, I58S
B4: SN(59-140)d chimeric HN protein (other)
chain: MEYWKHTNHGKDAGNELETSMATHGNKITNKITYILWTIILVLLSIVFIIVLISARQGYSMKEYSMTVEALNMSSREVKESLTSLIRQEVIARAVNIQSSVQTGIPVLLNKNSRDVIQMIDKSCSRQELTQHCESRITHDVGIKPLNPDDFWRCTSGLPSLMKTPKIRLMPGPGLLAMPTTVDGCVRTPSLVINDLIYAYTSNLITRGCQDIGKSYQVLQIGIITVNSDLVPDLNPRISHTFNINDNRKSCSLALLNTDVYQLCSTPKVDERSDYASSGIEDIVLDIVNHDGSISTTRFKNNNISFDQPYAALYPSVGPGIYYKGKIIFLGYGGLEHPINENAICNTTGCPGKTQRDCNQASHSPWFSDRRMVNSIIVVDKGLNSIPKLKVWTISMRQNYWGSEGRLLLLGNKIYIYTRSTSWHSKLQLGIIDITDYSDIRIKWTWHNVLSRPGNNECPWGHSCPDGCITGVYTDAYPLNPTGSIVSSVILDSQKSRVNPVITYSTSTERVNELAIRNKTLSAGYTTTSCITHYNKGYCFHIVEINHKSLDTFQPMLFKTEIPKSCS
B5: SN(80-140)d chimeric HN protein (other)
chain: MEYWKHTNHGKDAGNELETSMATHGNKITNKITYILWTIILVLLSIVFIIVLINSIKSEKAHESLLQDVNNEFMSREVKESLTSLIRQEVIARAVNIQSSVQTGIPVLLNKNSRDVIQMIDKSCSRQELTQHCESRITHDVGIKPLNPDDFWRCTSGLPSLMKTPKIRLMPGPGLLAMPTTVDGCVRTPSLVINDLIYAYTSNLITRGCQDIGKSYQVLQIGIITVNSDLVPDLNPRISHTFNINDNRKSCSLALLNTDVYQLCSTPKVDERSDYASSGIEDIVLDIVNHDGSISTTRFKNNNISFDQPYAALYPSVGPGIYYKGKIIFLGYGGLEHPINENAICNTTGCPGKTQRDCNQASHSPWFSDRRMVNSIIVVDKGLNSIPKLKVWTISMRQNYWGSEGRLLLLGNKIYIYTRSTSWHSKLQLGIIDITDYSDIRIKWTWHNVLSRPGNNECPWGHSCPDGCITGVYTDAYPLNPTGSIVSSVILDSQKSRVNPVITYSTSTERVNELAIRNKTLSAGYTTTSCITHYNKGYCFHIVEINHKSLDTFQPMLFKTEIPKSCS
B6: peptide 3F1B35 (peptide)
peptide: Ac-ELNKAKSDLEESKEWIRRSNQKLDSIGNWHQSSTT-NH2

What was measured:
PI2 virus [1] = type: cell-based, parainfluenza virus type 2
PI2 virus [2] = assay: Inhibition of virus production (released virus titer) in HeLa-T4 cells, PI2; type: cell-based, parainfluenza virus type 2; settings: compared with 2F1B34
PI2F + PI2HN = target: T1, PI2F + PI2HN; type: cell-based, parainfluenza virus type 2
PI3F + PI3HN = PI3F + PI3HN (Human parainfluenza 3 virus, UniProt P06828)
PI3 virus = type: cell-based, human parainfluenza type 3 virus
[3] = target: PI2 F plus PI2 HN (viral glycoproteins of PI2 virus; HN:F) (parainfluenza type 2 (PI2) virus)
[4] = target: PI2 F plus PI2 HN (viral glycoproteins of PI2 virus; HN:F) (parainfluenza type 2 (PI2) virus); remark: listed apart in the source
[5] = target: PI2 F plus PI2 HN (viral glycoproteins of PI2 virus; HN:F) (parainfluenza type 2 (PI2) virus); remark: listed apart in the source
[6] = target: T2, SN-F, fusion glycoprotein of Sendai …; assay: cell-based or functional assay
guinea pig erythrocytes = type: cell-based
SN-F = target: T3, SN-F; type: cell-based
HeLa-T4 cells = type: cell-based
[7] = target: PI3 F plus PI3 HN (viral glycoproteins of PI3 virus; HN:F) (parainfluenza type 3 (PI3) virus, UniProt P06828); assay: cell-based or functional assay
[8] = incubated with peptide, concentration not given

Row | Molecule | Fusion activity (%), β-galactosidase production in the fusion dependent reporter gene activation assay [6] | HAD activity as percentage of wild type SN-HN hemadsorption (guinea pig erythrocytes) | hemadsorption observed under the microscope (guinea pig erythrocytes) | Relative fusion promoting activity b/a (SN-F) | Cell surface expression (%) (HeLa-T4 cells) | further results
1 | 2F1B21: 21 a.a. PI2F peptide from the beginning of the transmembrane domain to a predicted glycosylation site in the heptad repeat B region (KSAEDWIADSNFFANQARTAK) |  |  |  |  |  | inhibition of PI2 cell fusion at high peptide concentration (PI2 virus [1]): could only partially inhibit cell fusion; syncytium formation / inhibition of cell fusion in PI2 infected HeLa-T4 cells (in words) (PI2 virus [1]; [8]): dramatically decreased; inhibition of PI2 virus-induced cell fusion (PI2 virus [1]; peptide 200 μM or more, 24 h post infection, m.o.i. 0.1): cell fusion was reduced remarkably; effect on multiple cycle growth, PI2 (in words) (PI2 virus [2]): not as dramatic as; inhibition of cell fusion by vaccinia-expressed PI2 F and HN (in words) (PI2F + PI2HN): only partially inhibited cell fusion
2 | 3F1B24: 24 a.a. PI3F peptide corresponding to the heptad repeat B only (ELNKAKSDLEESKEWIRRSNQKLD) |  |  |  |  |  | inhibition of cell fusion by vaccinia-expressed PI3 F and HN (in words) (PI3F + PI3HN): only partially inhibited cell fusion; inhibition of PI3 cell fusion at high peptide concentration (PI3 virus): could only partially inhibit cell fusion; syncytium formation / inhibition of cell fusion in PI3 infected HeLa-T4 cells (in words) (PI3 virus; [8]): dramatically decreased; inhibition of PI3 virus-induced cell fusion (PI3 virus; peptide 200 μM or more, 24 h post infection): partially inhibited
3 | B1 |  |  |  |  |  | viral titer in the culture supernatant 48 h post infection (plaque assay) (fold decrease) [3]: 15; 50% effective concentration (EC50) of inhibition of virus infection efficiency, plaque assay, Reed-Muench method [4]: 53.8 µM; plaque size (peptide in the agar overlay after virus absorption, Vero cells) [5]: 1.5 mm
4 | B2 | 55.3 % of SN-HN wt with SN-F | comparable or higher HAD activity than that of SN-HN | high levels of hemadsorption | 0.42 | 131.5% | 
5 | B3 | 8.82 % of SN-HN wt with SN-F | comparable or higher HAD activity than that of SN-HN | high levels of hemadsorption | 0.11 | 82.3% | fusion promoting activity, percentage of wild type SN-HN (SN-F): 8.8%
6 | B4 | 31.3 % of SN-HN wt with SN-F | comparable or higher HAD activity than that of SN-HN | high levels of hemadsorption | 0.51 | 61.6% | 
7 | B5 | 6.72 % of SN-HN wt with SN-F | 30.5% | lower activities | 0.09 | 72.0% | fusion promoting activity, percentage of wild type SN-HN (SN-F): 6.7%
8 | B6 |  |  |  |  |  | 50% effective concentration (EC50) of inhibition of virus infection efficiency, plaque assay, Reed-Muench method [7]: 81.6 µM; viral titer in the culture supernatant post infection [7]: 10 fold reduction
